{"source": "the nanobody polyreactivity screen of Harvey et al. (2022)", "data": [{"test": "yeast display, Sf9 membrane polyspecificity reagent, FACS + sequencing; frameworks hold sequencing errors", "method_in_brief": "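A nanobody's polyreactivity label depends on the gate it was sorted from. Yeast display cells were stained with 10% biotinylated, detergent-solubilized Sf9 membrane reagent for 1 hour at 4 °C, enriched on streptavidin microbeads and sorted by FACS. The low and high (top ~1%) gates were set on anti-HA fluorescence for expression and streptavidin fluorescence for reagent binding.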", "values": [{"sequence": "QVHFVESGGGLVQAGGSLSLSCAASGLTFSYYAMGWYRQAPGKERELVARISNSGGCTYYADSVKGRFTISRDNAKITVYLQMNSLKPEDTAVYYCAALHTSLHRNKYEYWGQGTQVTVSS", "polyreactivity (PSR sort gate)": "high polyreactivity"}, {"sequence": "QVHHLESRGGLVQEGGSLPISCGASGSTFLRYALGWYRQAPGKVRELVADITTSGGITYYADSVKGRFTISRDNAKYTVYLQLNSLKPEDTAVYDCDYWGQGTQVTVSS", "polyreactivity (PSR sort gate)": "low polyreactivity"}, {"sequence": "QVHHVESGGGLVQAGGSLRLSCAASGFIFTYNAMGWYRQAPGKERELVAAIRSGTNTSYADSVKGRFTISRDNAKNTVYLQMNSLKPEDTAVYYCNREVPEYQGFITPDGYWGQGTQVTVSS", "polyreactivity (PSR sort gate)": "low polyreactivity"}, {"sequence": "QVHHVESGGGLVQAGGSLRLSCAASGGTFRVYTMGWYRQAPAKVRELVAAITRNGGSTYYADSVKGRFTISRDNAKNSVYVQMNSLKPDDTAVYYCAARGGVPYSHAYDYWGQGTQVTVSS", "polyreactivity (PSR sort gate)": "low polyreactivity"}, {"sequence": "QVHHVESGGGLVQAGGSLRLSCAASGRIFYPYAMGWYRQAPGKERELVASITSGGGTYYADSVKGRFTISRDNAKNTVYLQMNSLKPEDTAVYYCAAKYYTSWIRYDYWGQGTQVTVSS", "polyreactivity (PSR sort gate)": "low polyreactivity"}, {"sequence": "QVHHVESGGGLVQAGGSRRLSSAASRIIIDTNAMGWSSQAPGKERELVASISTRGGSTYYADSVKGRFTISRDNAKNTVYLQMISLKPANTPVYYCNAVQTYSGGYEYWGQGTQVTVSS", "polyreactivity (PSR sort gate)": "high polyreactivity"}, {"sequence": "QVHIVESGGGLVQAGGSLRISCAASGRILLLYDMGWYRQAPGKERELVAAINWDGGYSYADSVKGRFTISRDNANNTVFLQMNSLKPADTAVYYCAKDDIWEHYDYWGQGTQVTVSS", "polyreactivity (PSR sort gate)": "low polyreactivity"}, {"sequence": "QVHIVESGGGLVQAGGSLRLSCGASGFTFIYAMGWYRQAHAKEREMVAAITRSGGSTYYADSVKGRFTISRDNAKNTVYSQMNILKPEDTAFYYCAARLRYQGRGYRYWGQGTQVTVSS", "polyreactivity (PSR sort gate)": "high polyreactivity"}, {"sequence": "QVHLEESCGGLVQAGGTLRLSCAASGSTFPRYVMGWYRQAPGKERELVAAITSGGSTYYADSVKGRFTISRDNAKNTVYLQMNRLKPEDTAVFYCAAGSYRVVWYDSWGQGTLVTVSS", "polyreactivity (PSR sort gate)": "high polyreactivity"}, {"sequence": "QVHLEESGGGIVQAGGSLRLSCAASGFTFPVHAMGWYRQAPGKERQLVAAIRWIGGDTYYADSVKGRFTISRDNAKNTVYLQMNSLKPEDTAVYYCAAEDTDDYSIWFEYWGQGTQVTVSS", "polyreactivity (PSR sort gate)": "high polyreactivity"}, {"sequence": "QVHLEHSAGGLVQAGGILRLSSPASGSIVVTNAMGWYRQAPGKERELVAAISNSGSSTYYADSVKGRFTISRDNSKNTVYLQMNSLKPEDTAVYYCAADEPTWDWSYPYGYWGQGTQVTVSS", "polyreactivity (PSR sort gate)": "high polyreactivity"}, {"sequence": "QVHLLERGGGLVQAGGSLRLSCMASGSILGDSMSWYRQAPGKEHELVATIYDGGITYYADSMKGRFTISRDNAKNSVYLQMNSLRPEDTAVYYCGASFEGYSYHVYCGQGTQVTVSS", "polyreactivity (PSR sort gate)": "low polyreactivity"}, {"sequence": "QVHLLESGGGLLQAGGSLLISCAAAGRTFGQNAMGWSRQAPGKARELVASIRSGGITDYADSVKGRYTISRDNAKYSVYLQMNSLKPEDTAVYYCNAEGVWWSTRYDSWGQGTQVTVSS", "polyreactivity (PSR sort gate)": "low polyreactivity"}, {"sequence": "QVHLLESGGGLVKAGGILRLSCAASGYIFPRYAMGSYRQSPGKDRELVAAITSGGSTYYADSVKGRFTISRDNAKNTVYLQMNSLKPEDTAVYYCIDPYHGREYEWGQGTQVTVSS", "polyreactivity (PSR sort gate)": "high polyreactivity"}, {"sequence": "QVHLQEIGGGLVQAGGSLRQSCAASGTISDSGLMGWYRQAPGKERELVAGISSGGITNYADSVKGRFTISRDNAKNTVYLQMNSLKPEDTAVYWGQGTQVTVSS", "polyreactivity (PSR sort gate)": "low polyreactivity"}, {"sequence": "QVHLQERGGGLLQACGSQRLSCAASGSISEVQYMGWYRRAPGKEREFVAGIAPGATTYYADSVKCRFTISRDNAKNTVFLQMNSLNPEYTDVDYFEDRYVTETDHDYWGQGTQVTVCS", "polyreactivity (PSR sort gate)": "low polyreactivity"}, {"sequence": "QVHLQESGGGLVQAGGSLRLSCAASGTIFASQHMGWYRQAPGKERELVASIAKGGTTYYADSVKGRFTISRGNAKNTEYLQMNRLKPEDTAVYYCAARGWGYRRTYVYAWYDYWGQGTQVTVSS", "polyreactivity (PSR sort gate)": "high polyreactivity"}, {"sequence": "QVHLQESGGGMVQAGGSLRLSCAESGNIFLGDTMGWYRQPPGKEREFVAGIARGGNPYYADSLKGRFTISRNNAKNTVYLQKNSLKPEDTAVHYCAFLRSHASDYIYWGQGTQVTVSS", "polyreactivity (PSR sort gate)": "low polyreactivity"}, {"sequence": "QVHLVDSGGGLVQAGGSLRFSCAASGSIFGWYAMGWYRQAPGTERELVDSIAVTAGSTYYADSVKWRFPISRDKAKNTGYLQLNRLKPEDTALYSCAADDYSADAVQRFYYWGQGSQVTVSS", "polyreactivity (PSR sort gate)": "low polyreactivity"}, {"sequence": "QVHLVDSGGGLVQAGGSLRLSCAASGFIFSKYAMGWYRQAPGKERELVAAISWNGGSTYYADSVKGRFTISRDNAKNTVYLQMNSLKPEDTAVYYCNARGRYRKSERRAFDYWGQGTQVTVSS", "polyreactivity (PSR sort gate)": "high polyreactivity"}, {"sequence": "QVHLVDSGGGLVQAGGSLRLSCAAYGSTFHPYAMGWYRQAPGKERELVADITSSGSTHYADSVKGRFTISRDNAKNTVYLQMNSLKPEDTAVYYCAAGIPWASDSGDPSFEYWGQGTEVTVSS", "polyreactivity (PSR sort gate)": "low polyreactivity"}, {"sequence": "QVHLVDSGGGLVQAGGSLRLSSAASGRIFGHYALGGYRQAPGKPRELVAAIRYSAGRTYYAGSVKGRFTISRDNAKNSVNLQMNSLKPEDTSVYYCAKTCRYLTGGGDYWGQGTQVTVSS", "polyreactivity (PSR sort gate)": "high polyreactivity"}, {"sequence": "QVHLVDSGGGLVQAGGSLSLRCAASRRSFVPYAMGWYSQGPGKEREFLADITWSTCTSTYYADSEKGRFTISRDNAKNTVYLHMNSLKPEDTAVYYCAVDIWWPNWYYIYWGQGTQVTLSS", "polyreactivity (PSR sort gate)": "low polyreactivity"}, {"sequence": "QVHLVDSGGGVVVAGGRLRLSCAASVFTFDRNAMGWYRHARGKERALVAAISSSGGRTYYADSVKGRFTISRDNAKNTFYLQMNSLKPEDTAVYYCNAVPSARTQPYNGWGQGSQVTVSS", "polyreactivity (PSR sort gate)": "high polyreactivity"}, {"sequence": "QVHLVDSRGGLVQAGGSLRLSCAASGRISVFYTMGWYRQEPGKEREMVATITTSGGFTYYADSVKGRFTNSRDNAKNTVYLLMNSLKPEDTAVYYCAAVLGYRFYEYYFWGQGTQVTVSS", "polyreactivity (PSR sort gate)": "low polyreactivity"}, {"sequence": "QVHLVEAGGGLVQAGGSLRYSCAASGYTFKLYAMGWYRQAPGKESELVAAITSGGSTSFADSVKGRFTISRDNAKNTVYLQMNSLKPEDTAVYYCAKRYSSYRAWYRNVGYYYWGLGTQVTVSS", "polyreactivity (PSR sort gate)": "high polyreactivity"}, {"sequence": "QVHLVESAAGLVQAGGSLRLSCAASGSTFIGNAMVWYRQAPGKERELVAAITRSGGTTYYADSVKGRFTISRDNAKNTVYLQMNSLKPEDTAVYYCNKTHFFGYDSWGQGTQVTVSS", "polyreactivity (PSR sort gate)": "low polyreactivity"}, {"sequence": "QVHLVESAAGLVQEGGSLRVSCAASGRIFDIYAMGGYRQSTGKERELVAAITLRGGTTYADSVKGRFTISRDNAKNSVYLQMNSLKPEDTAVYYCARYHWYYRVSKSESWGQGTQVTVSS", "polyreactivity (PSR sort gate)": "high polyreactivity"}, {"sequence": "QVHLVESCGGLVQAGGSLRLSCAASGNTFVYNDMGWYRQAPGKERELVDDIRYSGSTYYADSVKGRFTISRDNAKNTVYLQMNSLKPEDTAVYYCAKAYYVLSWMGYWGQGTQVTVSS", "polyreactivity (PSR sort gate)": "low polyreactivity"}, {"sequence": "QVHLVESGGAFVQAGGSLRLSCAASGRTFGYKAMGWYRQAPVNERELVAAITAGGSTNYADSVKGRFTISRDNAKKTVELQMNRLKPEDTAVYDSAARTYYVPYYYWGQGTQVTVSS", "polyreactivity (PSR sort gate)": "high polyreactivity"}, {"sequence": "QVHLVESGGCLVQAGGSLRLICAASGRIFDGNTMGWYRQEPGKERELVAAISGVGSTDYADSVKGRYTISRDNAKNTVYFQINSLKPEDTAVYYCAATTGPVPLKGDYWGQGTQVTVSS", "polyreactivity (PSR sort gate)": "low polyreactivity"}, {"sequence": "QVHLVESGGCLVQSGGSLRLSCAASGSTFPSYAKGWYRQAPGKERELVAAINSGGGTNYADSVKGRFTISRDNAKNTVYLQMNILKPEDTAVYYCAADVWKLYAYWGQGTQVTVSS", "polyreactivity (PSR sort gate)": "low polyreactivity"}, {"sequence": "QVHLVESGGGIVQAGGSLRLSCAASVRTFQYYAMGWYRKAPGKEREFVAAITRTGARTYYADSVKGRFTISRDNAKNTVYLQMNSLKPEDTAVYYCAKSLTFYSWRDYGYWGQGTQVTVSS", "polyreactivity (PSR sort gate)": "high polyreactivity"}, {"sequence": "QVHLVESGGGIVQARGSLRLSCDASGFIFYDYAMGSYRLAPGKEWELVAAISKRGGSRYYADSVKGRFTISRDNAKNTVYLQMNSLKPEDTAVYYCATEVEPYAYGYWGQGTQVTVSS", "polyreactivity (PSR sort gate)": "high polyreactivity"}, {"sequence": "QVHLVESGGGLDQAGGSLRLSCAASGRIFPLYAMGWYRQAPGKERELVAAISSGGTTYYADSVKGRFTISRDNAKNTVYLQMHSLKPEDTAVYYCARRPAQRWGRFDYWGQGTQVTVSS", "polyreactivity (PSR sort gate)": "low polyreactivity"}, {"sequence": "QVHLVESGGGLIQAGGSLRISSAPSGSTFGTYVMGWSRQAPGKERELVAAISKRGGRTYYADSVKGRFTISRDNAKNTVYVPMTSLKAEDTAVYYCYAVYLYSGSSARYYWGQGTEVTVSS", "polyreactivity (PSR sort gate)": "high polyreactivity"}, {"sequence": "QVHLVESGGGLLQAGGSLRLSCAASGFTFFVNAMGWYRQAPGKERELVAAISIRSGGRTYYADSVKGRFTISRENAKNTVYLQMNSLKPEDTAVYYCAAESSRPEHTFHYYRFLFDYWGQGTQVTVSS", "polyreactivity (PSR sort gate)": "low polyreactivity"}, {"sequence": "QVHLVESGGGLVHAGGSLRLSSAASGFIFRYYAMGWYRQAPGKERELVAAITSLGGRTYYADSVNGRFTISRDYAKNTVYLQMNSLKPEDTAVFYCAKSTRGTYDMGFWGQVTQVTVSS", "polyreactivity (PSR sort gate)": "high polyreactivity"}, {"sequence": "QVHLVESGGGLVKAGGSLRISCAASGRTSVLYAMGWYRQAPGKDREFVAAITWNSGSTYYADSVKGRFTISRDNAKHTVYLQMNCLKPEDTAVYYCAADVYYEYDYWGQGTQVTVSS", "polyreactivity (PSR sort gate)": "low polyreactivity"}, {"sequence": "QVHLVESGGGLVQAAGILRLSSAASGFTFVPYAMGWYRQAPGKERELVAAISWRRGSTYYADSVKGRFTISRDNAKITVYLQMNSLKPEDSGVYYGDDQYFSRSGYWGQGTQVTVSS", "polyreactivity (PSR sort gate)": "high polyreactivity"}, {"sequence": "QVHLVESGGGLVQAGCCLRLRCAASGRTYDAYAKAWYRQAPGKERELVAAISSGDITNYADSVKGRFTISRDHAKNTVYLQMNSLKPEDTAVYYCAAKPRLRFFLWHEYSSRYDYWGQGTQVTVSS", "polyreactivity (PSR sort gate)": "high polyreactivity"}, {"sequence": "QVHLVESGGGLVQAGCSLRLSCAASGYIFVRNAMGWYRQAPGKERELVAAISGSGGSTYYADSVKGRFTISRDNAKNTVYLQMNSLKPEDTAVYYCASDPYHWRWGWRHDYWGQGTQVTVSS", "polyreactivity (PSR sort gate)": "low polyreactivity"}, {"sequence": "QVHLVESGGGLVQAGGILRLSCAASGRTFLWYAMGWSRQAPGKERELVAAISKRGGSTYYADSVKGRFTISRDKAKNTVYLQMNSLKPVDTAVYYCAAEKRYSSYDYWGQGTQVSVSS", "polyreactivity (PSR sort gate)": "high polyreactivity"}]}]}
